Experimental data taken from patent US20090166224A1 (published 2009).

Assays:
Experiment in all cases: human serum on Con A/WGA/Jacalin column, lectin-specific displacer fraction, LC-MS/MS; grade = SEQUEST rank group (+ = ranks 1-5, ++++ = 16-20)
[1] = target: T1, IG ALPHA-1 CHAIN C REGION (human, UniProt P01876-1 1-353)
T1 construct: domain: C region; Polyclonal serum IgA, identified through its constant region; variable regions and light chains not defined; also called ALC1

HEMOPEXIN = target: T2, HEMOPEXIN (human, UniProt P02790 24-462)
T2 construct: from human serum
T2 sequence (looked up): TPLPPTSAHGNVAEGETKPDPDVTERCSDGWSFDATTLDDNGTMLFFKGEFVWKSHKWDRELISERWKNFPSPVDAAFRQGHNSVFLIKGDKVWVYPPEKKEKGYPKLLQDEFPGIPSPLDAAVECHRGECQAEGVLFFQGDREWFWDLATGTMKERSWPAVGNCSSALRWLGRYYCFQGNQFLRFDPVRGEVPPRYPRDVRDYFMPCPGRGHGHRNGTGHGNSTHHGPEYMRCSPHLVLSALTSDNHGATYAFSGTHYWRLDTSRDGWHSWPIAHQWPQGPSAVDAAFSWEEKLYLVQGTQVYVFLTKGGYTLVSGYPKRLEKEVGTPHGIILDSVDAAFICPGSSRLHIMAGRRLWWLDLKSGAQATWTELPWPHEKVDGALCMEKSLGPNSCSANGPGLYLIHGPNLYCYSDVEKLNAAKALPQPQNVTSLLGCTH

ALPHA-2-MACROGLOBULIN = target: T3, ALPHA-2-MACROGLOBULIN (human, UniProt P01023 24-1474)
T3 construct: also called A2MG; α2-macroglobulin
T3 sequence (looked up): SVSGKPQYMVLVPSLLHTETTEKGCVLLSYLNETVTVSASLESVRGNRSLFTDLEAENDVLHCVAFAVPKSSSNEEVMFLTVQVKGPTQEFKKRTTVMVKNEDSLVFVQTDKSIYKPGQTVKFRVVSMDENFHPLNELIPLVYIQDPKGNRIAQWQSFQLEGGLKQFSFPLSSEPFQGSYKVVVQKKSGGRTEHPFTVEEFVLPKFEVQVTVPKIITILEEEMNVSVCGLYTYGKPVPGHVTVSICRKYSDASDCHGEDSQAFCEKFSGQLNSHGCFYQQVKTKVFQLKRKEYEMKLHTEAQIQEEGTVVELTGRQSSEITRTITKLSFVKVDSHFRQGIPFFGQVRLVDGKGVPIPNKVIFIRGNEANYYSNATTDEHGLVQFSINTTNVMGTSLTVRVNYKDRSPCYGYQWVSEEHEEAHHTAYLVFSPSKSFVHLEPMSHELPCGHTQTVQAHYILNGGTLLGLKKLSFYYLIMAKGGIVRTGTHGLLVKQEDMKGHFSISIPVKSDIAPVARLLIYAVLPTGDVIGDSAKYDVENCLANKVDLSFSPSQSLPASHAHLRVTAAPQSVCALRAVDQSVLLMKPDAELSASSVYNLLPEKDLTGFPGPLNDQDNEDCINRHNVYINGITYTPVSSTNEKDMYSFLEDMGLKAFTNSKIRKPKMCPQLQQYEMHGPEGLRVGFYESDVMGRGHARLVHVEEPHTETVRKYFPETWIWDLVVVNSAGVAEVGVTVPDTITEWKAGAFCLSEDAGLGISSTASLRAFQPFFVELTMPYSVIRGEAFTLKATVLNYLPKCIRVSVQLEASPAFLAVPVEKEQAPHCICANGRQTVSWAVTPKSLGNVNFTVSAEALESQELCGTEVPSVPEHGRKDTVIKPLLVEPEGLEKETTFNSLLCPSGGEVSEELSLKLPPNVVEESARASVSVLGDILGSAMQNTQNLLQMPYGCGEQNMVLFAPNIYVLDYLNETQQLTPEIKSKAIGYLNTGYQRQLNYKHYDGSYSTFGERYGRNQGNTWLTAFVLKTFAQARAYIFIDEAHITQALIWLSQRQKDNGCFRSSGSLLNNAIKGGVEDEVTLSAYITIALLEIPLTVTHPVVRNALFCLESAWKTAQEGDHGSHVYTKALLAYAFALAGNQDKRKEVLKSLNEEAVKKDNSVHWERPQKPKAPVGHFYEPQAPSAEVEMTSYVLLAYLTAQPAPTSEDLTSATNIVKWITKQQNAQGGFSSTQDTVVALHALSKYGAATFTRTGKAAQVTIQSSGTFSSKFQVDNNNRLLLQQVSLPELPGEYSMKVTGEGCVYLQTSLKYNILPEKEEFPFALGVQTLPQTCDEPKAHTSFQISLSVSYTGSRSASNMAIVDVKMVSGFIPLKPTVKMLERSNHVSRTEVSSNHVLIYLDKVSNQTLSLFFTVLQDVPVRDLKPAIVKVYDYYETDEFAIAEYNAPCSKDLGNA

[2] = target: T4, PLASMA PROTEASE C1 INHIBITOR (human, UniProt P05155 23-500)
T4 construct: from human serum; also called IC1
T4 sequence (looked up): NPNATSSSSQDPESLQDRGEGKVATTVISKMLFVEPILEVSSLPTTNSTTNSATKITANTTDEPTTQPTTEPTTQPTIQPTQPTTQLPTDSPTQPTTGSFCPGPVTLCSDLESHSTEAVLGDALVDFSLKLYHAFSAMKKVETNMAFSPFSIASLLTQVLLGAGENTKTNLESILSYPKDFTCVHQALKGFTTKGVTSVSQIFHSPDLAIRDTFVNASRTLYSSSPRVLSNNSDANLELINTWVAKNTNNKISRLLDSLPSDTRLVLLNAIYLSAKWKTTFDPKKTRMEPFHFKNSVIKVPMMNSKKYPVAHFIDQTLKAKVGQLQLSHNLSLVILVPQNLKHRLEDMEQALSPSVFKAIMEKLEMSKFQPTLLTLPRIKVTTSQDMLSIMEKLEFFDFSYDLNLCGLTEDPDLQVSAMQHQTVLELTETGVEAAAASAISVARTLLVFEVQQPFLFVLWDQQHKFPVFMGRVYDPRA

T1 sequence (P01876 other isoform, or with tags, fused parts or gaps limits assumed): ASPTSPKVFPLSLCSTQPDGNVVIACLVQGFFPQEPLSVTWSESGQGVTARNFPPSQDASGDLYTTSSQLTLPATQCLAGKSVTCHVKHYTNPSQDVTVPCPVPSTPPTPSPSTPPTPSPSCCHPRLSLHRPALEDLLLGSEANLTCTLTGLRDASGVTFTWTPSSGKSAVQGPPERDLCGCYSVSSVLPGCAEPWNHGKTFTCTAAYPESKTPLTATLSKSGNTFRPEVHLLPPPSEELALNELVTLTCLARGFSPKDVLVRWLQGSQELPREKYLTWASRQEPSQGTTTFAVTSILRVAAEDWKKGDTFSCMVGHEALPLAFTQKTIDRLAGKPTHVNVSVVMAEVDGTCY

B1: wheat germ agglutinin (WGA), agarose-bound (other, UniProt P10968 27-197, looked up)
chain: QRCGEQGSNMECPNNLCCSQYGYCGMGGDYCGKGCQNGACWTSKRCGSQAGGATCTNNQCCSQYGYCGFGAEYCGAGCQGGPCRADIKCGSQAGGKLCPNNLCCSQWGFCGLGSEFCGGGCQSGACSTDKPCGKDAGGRVCTNNYCCSKWGSCGIGPGYCGAGCQSGGCDG
modifications: immobilized on agarose
notes: Lectin; released with N-acetyl-glucosamine; Coated on the plate in the lectin ELISA
In the case of B1, the “SEQUEST ranking (relative abundance in the WGA displacement fraction)” value [1] is reported as 1 to 5 rank, the “SEQUEST ranking (relative abundance in the WGA displacement fraction)” value (HEMOPEXIN) is reported as 1 to 5 rank and the “SEQUEST ranking (relative abundance in the WGA displacement fraction)” value (ALPHA-2-MACROGLOBULIN) is reported as 1 to 5 rank. The “SEQUEST ranking (relative abundance in the WGA displacement fraction)” value [2] was 16 to 20 rank.
